This note sets out measurements from publication PMC8549804 (Chemical Science, 2021).

The data set deals with the molecule itself. Kind of data set: native MS.

B1: bacteriophage T4 gene product 32 (gp32) (natural protein)
chain: MFKRKSTAELAAQMAKLNGNKGFSSEDKGEWKLKLDNAGNGQAVIRFLPSKNDEQAPFAILVNHGFKKNGKWYIETCSSTHGDYDSCPVCQYISKNDLYNTDNKEYSLVKRKTSYWANILVVKDPAAPENEGKVFKYRFGKKIWDKINAMIAVDVEMGETPVDVTCPWEGANFVLKVKQVSGFSNYDESKFLNQSAIPNIDDESFQKELFEQMVDLSEMTSKDKFKSFEELNTKFGQVMGTAVMGGAAATAAKKADKVADDLDAFNVDDFNTKTEDDFMSSSSGSSSSADDTDLDDLLNDLC
modifications: disulfur monoxide moiety at Cys302 (C-terminal, attributed to the intein reaction)
For the protein B1, the “stoichiometry N” value is 2.

B2: gp32-ΔCTD (amino acids 1-254) (domain or fragment, bacteriophage T4, UniProt P03695 1-254, looked up)
chain: MFKRKSTAELAAQMAKLNGNKGFSSEDKGEWKLKLDNAGNGQAVIRFLPSKNDEQAPFAILVNHGFKKNGKWYIETCSSTHGDYDSCPVCQYISKNDLYNTDNKEYSLVKRKTSYWANILVVKDPAAPENEGKVFKYRFGKKIWDKINAMIAVDVEMGETPVDVTCPWEGANFVLKVKQVSGFSNYDESKFLNQSAIPNIDDESFQKELFEQMVDLSEMTSKDKFKSFEELNTKFGQVMGTAVMGGAAATAAKK
Turning to B2, the “stoichiometry N” value worked out at 2.

A word on the stoichiometry N: it is a count of units in the complex or per binding partner.
